Source: patent US9498540B2, “Cell proliferation inhibitors and conjugates thereof” (NOVARTIS AG, priority 2013, dated 2016)

How the values were obtained:
[1] = Average drug loading (DAR, drug to antibody ratio) from LC/MS of reduced, deglycosylated conjugates; settings: conjugate with trastuzumab (TBS); average number of payload molecules per antibody
Excerpt: The immunoconjugates prepared as described above were characterized by LC/MS, as illustrated in FIG. 1 for one immunoconjugate. […] The conjugates were characterized in terms of average drug loading for a sample (DAR, drug to antibody ratio) and aggregation (expressed in %).
The DAR value is extrapolated from LC-MS data for reduced and deglycosylated samples. […] HPLC separates the antibody into light and heavy chains, and separates the heavy chain (HC) and light chain (LC) according to the number of Linker-Payload groups per chain. Mass spectral data enables identification of the component species in the mixture, e.g., LC, LC+1, LC+2, HC, HC+1, HC+2, etc. From the average loading on the LC and HC chains, the average drug to antibody ratio (DAR) can be calculated for an ADC (see FIG. 1B). The DAR for a given conjugate sample represents the average number of drug (payload) molecules attached to a tetrameric antibody containing two light chains and two heavy chains.

[2] = Aggregation of immunoconjugates by analytical size exclusion chromatography; assay type: physicochemical; settings: conjugate with trastuzumab (TBS); Superdex 200 5/150 GL run in PBS
Experimental: Aggregation was measured by analytical size exclusion chromatography (Superdex 200 5/150 GL run in PBS). It was observed that the extent of aggregation depends on the Linker-Payload and the DAR. […] Table 4 also indicates whether the linking group for each conjugate is stable or cleavable.

| SMILES | DAR [1] | Aggregation % [2] |
| --- | --- | --- |
| C[C@H](O)C(=O)N(CC[C@@H](C)N)[C@@H](c1nc(-c2cc(F)ccc2F)cn1Cc1ccccc1)C(C)(C)C [Compound 35] | 3 | 44.3% |
| C[C@H](O)C(=O)N(CC[C@H](N)CF)[C@@H](c1nc(-c2cc(F)ccc2F)cn1CC1(C)COC1)C(C)(C)C [Compound 34] | 4.4 | 50.5% |
| O=C(N1C[C@@H](O)[C@@H](O)C1)N(C[C@@H]1CNC[C@@H]1F)[C@@H](c1nc(-c2cc(F)ccc2F)cn1Cc1ccccc1)C1CCOCC1 [Compound 56] | 4.1 | 45.1% |
| C[C@H](O)C(=O)N(CC[C@H](N)CF)[C@@H](c1nc(-c2cc(F)cc(F)c2F)cn1Cc1ccccc1)C(C)(C)C [Compound 62] | 2 | 48.7% |
| C[C@H](O)C(=O)N(CC[C@H](N)CF)[C@H](c1nc(-c2cc(F)ccc2F)cn1Cc1ccccc1)C1CCS(=O)(=O)CC1 [Compound 24] | 1.2 | 54.2% |
| CC(C)(C)[C@H](c1nc(-c2cc(F)ccc2F)cn1Cc1ccccc1)N(CC[C@H](N)CF)C(=O)CN [Compound 1] | 5 | 75.8% |
| CSCCC(=O)N(C[C@@H]1CNC[C@@H]1F)[C@@H](c1nc(-c2cc(F)ccc2F)cn1Cc1ccccc1)C1CCOCC1 [Compound 39] | 3.2 | 68.5% |
| C[C@H](O)C(=O)N(CC[C@H](N)CF)[C@@H](c1nc(-c2cc(F)ccc2F)cn1Cc1ccccc1)C1CCS(=O)(=O)CC1 [Compound 37] | 5.6 | 68% |
| COC(C)(C)[C@H](c1nc(-c2cc(Cl)ccc2F)cn1Cc1cccc(F)c1)N(C[C@@H]1CN[C@H](CF)C1)C(=O)c1cc(C)nn1C [Compound 59] | 5.2 | 71% |
| COC(=O)N(C[C@@H](F)CN)[C@@H](c1nc(-c2cc(F)ccc2F)cn1Cc1ccccc1)C(C)(C)C [Compound 41] | 4.5 | 23.8% |
| CCOC(C)(C)[C@H](c1nc(-c2cc(F)ccc2F)cn1Cc1cccc(F)c1)N(C[C@@H]1CNC[C@@H]1F)C(=O)[C@H](C)O [Compound 75] | 2.9 | 69.4% |
| COC(C)(C)[C@H](c1nc(-c2cc(Cl)ccc2F)cn1Cc1cccc(F)c1)N(C[C@@H]1CN[C@H](CF)C1)C(=O)[C@@H]1CCCO1 [Compound 13] | 5.8 | 0.7% |
| CC(C)(C)OC(=O)N1C[C@@H](CN(C(=O)CI)[C@@H](c2nc(-c3cc(F)ccc3F)cn2Cc2cccc(F)c2)C(C)(C)C)[C@@H](F)C1 [Compound 31] | 5.8 | 10.6% |
| C[C@H](O)C(=O)N(CC[C@@H](N)CF)[C@@H](c1nc(-c2cc(F)ccc2F)cn1Cc1ccccc1)C(C)(C)C [Compound 29] | 2.8 | 2.9% |
| O=C(NCCO)N(C[C@@H]1CNC[C@@H]1F)[C@@H](c1nc(-c2cc(F)ccc2F)cn1Cc1ccccc1)C1CCOCC1 [Compound 58] | 5.3 | 59.4% |
| CC(C)(C)[C@H](c1nc(-c2cc(F)ccc2F)cn1Cc1ccccc1)N(CC[C@H](N)CF)C(=O)CO[C@@H]1O[C@H](C(=O)O)[C@@H](O)[C@H](O)[C@H]1O [Compound 55] | 3.8 | 11.5% |
| CC(C)(C)[C@H](c1nc(-c2cc(F)ccc2F)nn1Cc1ccccc1)N(CCCN)C(=O)N1CCOCC1 [Compound 61] | 2 | 46.1% |
| CC(C)(C)[C@H](c1nc(-c2cc(F)ccc2F)cn1Cc1ccccc1)N(CC[C@H](N)CF)C(=O)CO [Compound 2] | 4.2 | 43.8% |
| CC(C)(C)[C@H](c1nc(-c2cc(F)ccc2F)nn1Cc1ccccc1)N(CC[C@H](N)CF)C(=O)N1CCSCC1 [Compound 10] | 5 | 47% |

| SMILES | DAR [1] | Aggregation % [2] |
| --- | --- | --- |
| CC(C)(C)[C@H](c1nc(-c2cc(F)ccc2F)nn1Cc1ccccc1)N(CCCN)C(=O)CO [Compound 50] | 2.8 | 40% |
| O=C([C@@H]1CNCCO1)N(C[C@@H]1CNC[C@@H]1F)[C@@H](c1nc(-c2cc(F)ccc2F)cn1Cc1ccccc1)C1CCOCC1 [Compound 70] | 6.5 | 16.9% |
| C[C@H](O)C(=O)N(C[C@@H]1CNC[C@@H]1F)[C@@H](c1nc(-c2cc(F)ccc2F)cn1Cc1ccccc1)C(C)(C)C [Compound 72] | 5.2 | 45% |
| C[C@H](O)C(=O)N(C[C@H]1CCNC1)[C@@H](c1nc(-c2cc(F)ccc2F)cn1Cc1ccccc1)C1CCOCC1 [Compound 32] | 5.2 | 1.4% |
| CC(C)(C)[C@H](c1nc(-c2cc(F)ccc2F)cn1Cc1ccccc1)N(CC[C@H]1COCCN1)C(=O)N1CCOCC1 [Compound 63] | 4 | 53.2% |
| C[C@H](O)C(=O)N(CC[C@H](N)CF)[C@@H](c1nc(-c2cc(F)ccc2F)cn1Cc1ccccc1)C(C)(C)C [Compound 71] | 2.9 | 2.6% |
| C[C@H](O)C(=O)N(C[C@@H]1CNC[C@@H]1F)[C@@H](c1nc(-c2cc(F)ccc2F)cn1Cc1cccc(N)n1)C1CCOCC1 [Compound 66] | 3.6 | 64.5% |
| COC(C)(C)[C@H](c1nc(-c2cc(F)ccc2F)cn1Cc1cccc(F)c1)N(C[C@@H]1CNC[C@@H]1F)C(=O)[C@H](C)O [Compound 54] | 3.1 | 2.5% |
| CC(C)(C)[C@@H](NC(=O)c1csc(CN)n1)c1nc(-c2cc(F)ccc2F)cn1Cc1ccccc1 [Compound 45] | 4.8 | 22% |
| CC(C)(C)[C@H](c1nc(-c2cc(F)ccc2F)nn1Cc1ccccc1)N(CCCN)C(=O)N1CCC[C@H]1CO [Compound 28] | 3.6 | 63.6% |
| CC(C)(C)[C@H](c1nc(-c2cc(F)ccc2F)cn1Cc1cccc(F)c1)N(C[C@@H]1CNC[C@@H]1F)C(=O)CSCCN [Compound 16] | 7.4 | 20.4% |
| C[C@@H]1CN(C(=O)N(CC[C@H](N)CF)[C@@H](c2nc(-c3cc(F)cc(F)c3)nn2Cc2ccccc2)C(C)(C)C)C[C@H](C)O1 [Compound 52] | 5.2 | 47.4% |
| CC(C)(C)[C@H](c1nc(-c2cc(F)ccc2F)cn1Cc1ccccc1)N(CC[C@H]1COCCN1)C(=O)c1cccnc1 [Compound 36] | 2.6 | 40% |
| CSCCC(=O)N(C[C@@H]1CNC[C@@H]1F)[C@@H](c1nc(-c2cc(F)ccc2F)cn1Cc1cccc(F)c1)C(C)(C)C [Compound 9] | 6 | 84.9% |
| CNC(=O)N(C[C@@H]1CNC[C@@H]1F)[C@@H](c1nc(-c2cc(F)ccc2F)cn1Cc1cccc(F)c1)C(C)(C)C [Compound 40] | 4 | 9.3% |
| CC(C)(C)[C@H](c1nc(-c2cc(F)ccc2F)cn1Cc1ccccc1)N(CC[C@@H]1COCCN1)C(=O)CO [Compound 6] | 3 | 67.2% |
| C[C@H](O)C(=O)N(CCCN)[C@@H](c1nc(-c2cc(F)ccc2F)nn1Cc1ccccc1)C(C)(C)C [Compound 7] | 2.7 | 44.4% |
| C[C@H](O)C(=O)N(CC[C@H](N)CF)[C@@H](c1nc(-c2cc(F)ccc2F)cn1CC1CCOCC1)C(C)(C)C [Compound 11] | 4 | 4% |
| CC(C)(C)[C@@H](NC[C@@H]1CNC[C@@H]1F)c1nc(-c2cc(F)ccc2F)nn1Cc1cccc(F)c1 [Compound 33] | 6.3 | 29.8% |
